For experiment [1], the target named is T1, His-tagged IgD2-D3 of human FGFR3-IIIb (human, UniProt P22607-2 143-374, limits assumed).
T1 construct: domain: IgD2-D3; also called FGFR3-IIIb-His protein; Human FGFR3 ECD IIIb; not shown: His tag
T1 sequence (looked up): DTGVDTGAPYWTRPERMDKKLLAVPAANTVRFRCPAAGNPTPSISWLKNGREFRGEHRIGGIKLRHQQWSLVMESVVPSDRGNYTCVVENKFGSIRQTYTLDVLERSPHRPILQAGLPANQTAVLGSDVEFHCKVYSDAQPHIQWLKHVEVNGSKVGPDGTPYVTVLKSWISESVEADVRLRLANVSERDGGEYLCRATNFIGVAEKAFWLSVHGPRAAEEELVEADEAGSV
Put plainly: BIAcore.

The next experiment concerns the target T2, FGFR3 on OPM2 cells (human, UniProt P22607).
T2 construct: full length, on cells; also called FGFR3 K650E
Briefly: Scatchard analysis: radioiodinated (125I) R3Mab on OPM2 cells in suspension with unlabeled antibody, 2 h at room temperature; mean of two binding experiments. The protocol:
(§1) FIGS. 23A and 23B: Cell surface expression levels of FGFR3 in myeloma and bladder cancer cells. (FIG. 23A) Cell surface FGFR3 expression in myeloma cells and bladder cancer cells assessed by FACS analysis. Cells were stained with phycoerythin-conjugated mouse mAb against human FGFR3 (FAB766P, R&D Systems) or phycoerythin-conjugated isotype control mouse IgG1(BD Pharmingen). (FIG. 23B) Scatchard analysis of FGFR3 density in myeloma cells and bladder cancer cells. […] After incubation at RT for 2 hours, cells were pelleted by centrifugation and washed twice. Specifically bound ¹²⁵I was determined.

Experiment [2] concerns the target T3, human FGFR3-IIIb ECD-human Fc chimeric protein (human, UniProt P22607-2 23-377).
T3 construct: extracellular domain; also called FGFR3-Fc chimeric protein (IIIb); not shown: human Fc
T3 sequence (looked up): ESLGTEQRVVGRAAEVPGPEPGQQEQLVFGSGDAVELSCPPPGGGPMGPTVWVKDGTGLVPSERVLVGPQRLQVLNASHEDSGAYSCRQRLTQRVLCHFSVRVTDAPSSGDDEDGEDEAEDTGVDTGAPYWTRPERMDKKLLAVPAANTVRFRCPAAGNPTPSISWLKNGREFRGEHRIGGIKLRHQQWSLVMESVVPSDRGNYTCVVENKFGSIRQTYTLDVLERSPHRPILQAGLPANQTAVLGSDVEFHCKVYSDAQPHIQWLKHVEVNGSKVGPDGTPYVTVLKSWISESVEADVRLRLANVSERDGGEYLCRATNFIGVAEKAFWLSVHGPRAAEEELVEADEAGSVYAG
Briefly: direct ELISA: FGFR ECD-human Fc chimeric protein coated on the plate, R3Mab titrated, detection with HRP anti-human Fab. An excerpt: (§2) Specific binding was detected using an anti-human Fab antibody. […] Error bars represent standard error of the mean (SEM) and are sometimes smaller than symbols.
(§3) cDNAs encoding the extracellular domains (ECD) of human FGFR1-IIIb, IIIc, FGFR2-IIIb and IIIc, FGFR3-IIIb and IIIc, and FGFR4 were cloned into pRK-based vector to generate human FGFR-human Fc chimeric proteins. The recombinant proteins were produced by transiently transfecting Chinese hamster ovary (CHO) cells and purified via protein A affinity chromatography. To test binding of antibodies to human FGFRs, Maxisorp 96-well plates (Nunc) were coated overnight at 4° C. with 50 μl of 2 μg/ml of FGFR ECD-human Fc chimeric proteins. After blocking with phosphate-buffered saline (PBS)/3% BSA, FGFR3 antibody was added and incubated at RT for 2 hours. Specifically bound FGFR3 antibody was detected using an HRP-conjugated anti-human Fab and the TMB peroxidase colorigenic substrate (KPL, Gaithersburg, Md.).

Experiment [3] concerns the target T4, human FGFR4 ECD-human Fc chimeric protein (human, UniProt P22455 22-369).
T4 construct: extracellular domain; not shown: human Fc
The experiment is described as above.
Description: as §2, §3

A further experiment has as its target T5, FGFR3 on UMUC-14 cells (human, UniProt P22607-2).
T5 construct: full length, on cells; Same protein as r1, here on intact cells and not in lysates; also called FGFR3^S249C on cells
Put plainly: Scatchard analysis: radioiodinated (125I) R3Mab on UMUC-14 cells in suspension with unlabeled antibody, 2 h at room temperature; mean of two binding experiments. The protocol:
as §1

The target of experiment [4] is T3, human FGFR3-IIIb ECD-human Fc chimeric …. Put plainly: ELISA: blocking of FGF1 binding to captured FGFR3-IIIb-Fc. The procedure: as §2
(§4) To test the effect of antibodies to FGFR3 on FGF/FGFR3 interaction, FGFR3-Fc chimeric proteins were captured on Maxisorp plate coated with anti-human immunoglobulin Fcγ fragment-specific antibody (Jackson Immunoresearch, West Grove, Pa.). After wash, increasing amount of FGFR3 antibody was added to the plate and incubated for 30 minutes.

In a further experiment the target is T6, FGFR3 on RT112 cells (human, UniProt P22607-2).
T6 construct: full length, on cells; also called WT FGFR3
Put plainly: Scatchard analysis: radioiodinated (125I) R3Mab on RT112 cells in suspension with unlabeled antibody, 2 h at room temperature; mean of two binding experiments. The procedure:
as §1

Experiment [5] concerns the target T3, human FGFR3-IIIb ECD-human Fc chimeric …. Put plainly: ELISA: blocking of FGF9 binding to captured FGFR3-IIIb-Fc. The procedure: as §2, §4
Experiment [6] has as its target T1, His-tagged IgD2-D3 of human FGFR3-IIIb. Put plainly: BIAcore; R3Mab on CM5 chip, FGFR3-His injected. The protocol: For kinetic measurement, two-fold serial dilutions of FGFR3-IIIb or IIIc-His protein (starting from 67 nM) were injected in PBST buffer at 25° C. with a flow rate of 30 μl/minute. Association rates (Kon, per mol/s) and dissociation rates (Koff, per s) were calculated using a simple one-one Langmuir binding model (BIAcore Evaluation Software version 3.2). The equilibrium dissociation constant (Kd, per mol) was calculated as the ratio of Koff/Kon.

The target of a further experiment is T7, FGFR3 on KMS11 cells (human, UniProt P22607).
T7 construct: full length, on cells; also called FGFR3 Y373C
Briefly: Scatchard analysis: radioiodinated (125I) R3Mab on KMS11 cells in suspension with unlabeled antibody, 2 h at room temperature; mean of two binding experiments. The protocol: as §1

B1: anti-FGFR3 antibody clone 184.6.58 (antibody, V domains shown)
VH: EVQLVESGGGLVQPGGSLRLSCAASGFTFTSTGISWVRQAPGKGLEWVGRIYPTNGSTNYADSVKGRFTISADTSKNTAYLQMNSLRAEDTAVYYCARTYGIYDLYVDYTEYVMDYWGQGTLVTVSS
VL: DIQMTQSPSSLSASVGDRVTITCRASQDVDISLAWYQQKPGKAPKLLIYSASSLASGVPSRFSGSGSGTDFTLTISSLQPEDFATYYCQQGAGNPYTFGQGTKVEIK
B1 yielded a Kd in experiment [1] of 190 pM.

B2: anti-FGFR3 antibody clone 184.6.1N54S (antibody, V domains shown)
VH: EVQLVESGGGLVQPGGSLRLSCAASGFTFTSTGISWVRQAPGKGLEWVGRIYPTSGSTNYADSVKGRFTISADTSKNTAYLQMNSLRAEDTAVYYCARARTYGIYDLYVDYTEYVMDYWGQGTLV
VL: DIQMTQSPSSLSASVGDRVTITCRASQDVDTSLAWYQQKPGKAPKLLIYSASFLYSGVPSRFSGSGSGTDFTLTISSLQPEDFATYYCQQSTGHPQTFGQGTKVEIKR
notes: also called R3Mab; R3 Mab
Consider B2, for which the dissociation constant Kd in the experiment with FGFR3 on OPM2 cells turned out to be 640 pM; with FGFR3 on UMUC-14 cells, 340 pM; with FGFR3 on RT112 cells, 160 pM; in experiment [6], 111 pM; with FGFR3 on KMS11 cells, 350 pM. In addition, the concentration for a half-maximal effect (EC50 (read off the curve)) in [2] was roughly 300 pM. Also, the binding result in [3] is “no binding (tested: about 60 nM)”. For the same molecule, the figures for the IC50 in [4] and in experiment [5] were 300 pM and 1100 pM, respectively. This molecule also registered a koff in experiment [6] of 0.0002 s⁻¹. Further, the kon in experiment [6] was 1.8e+06 M⁻¹ s⁻¹.
